Experimental data as given in IntAct's records for PubMed 21252943.

B1: E3 ubiquitin-protein ligase RNF4 (Rattus norvegicus (Rat)), O88846 (parent)
chain: MSTRNPQRKRRGGAVNSRQTQKRTRETTSTPEISLEAEPIELVETVGDEIVDLTCESLEPVVVDLTHNDSVVIVEERRRPRRNGRRLRQDHADSCVVSSDDEELSKDKDVYVTTHTPRSTKDEGTTGLRPSGTVSCPICMDGYSEIVQNGRLIVSTECGHVFCSQCLRDSLKNANTCPTCRKKINHKRYHPIYI

Variants of: B1
Conditions: with sumo2_human SUMO2, P61956
Chain of sumo2_human SUMO2, P61956 (P61956 whole entry): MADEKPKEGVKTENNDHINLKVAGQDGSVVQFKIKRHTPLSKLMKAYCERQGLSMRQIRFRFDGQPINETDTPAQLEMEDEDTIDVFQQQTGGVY

| Variant | effect of a mutation on the interaction |
| --- | --- |
| MSTRNPQRKRRGGAVNSRQTQKRTRETTSTPEISLEAEPIEAVETVGDEIVDLTCESLEPVVVDLTHNDSVVIVEERRRPRRNGRRLRQDHADSCVVSSDDEELSKDKDVYVTTHTPRSTKDEGTTGLRPSGTVSCPICMDGYSEIVQNGRLIVSTECGHVFCSQCLRDSLKNANTCPTCRKKINHKRYHPIYI [L42A] | disrupting interaction |
| MSTRNPQRKRRGGAVNSRQTQKRTRETTSTPEISLEAEPIELVETVGDEAVDLTCESLEPVVVDLTHNDSVVIVEERRRPRRNGRRLRQDHADSCVVSSDDEELSKDKDVYVTTHTPRSTKDEGTTGLRPSGTVSCPICMDGYSEIVQNGRLIVSTECGHVFCSQCLRDSLKNANTCPTCRKKINHKRYHPIYI [I50A] | disrupting interaction |
| MSTRNPQRKRRGGAVNSRQTQKRTRETTSTPEISLEAEPIELAETVGDEIVDLTCESLEPVVVDLTHNDSVVIVEERRRPRRNGRRLRQDHADSCVVSSDDEELSKDKDVYVTTHTPRSTKDEGTTGLRPSGTVSCPICMDGYSEIVQNGRLIVSTECGHVFCSQCLRDSLKNANTCPTCRKKINHKRYHPIYI [V43A] | disrupting interaction |
| MSTRNPQRKRRGGAVNSRQTQKRTRETTSTPEISLEAEPIELVETVGDEIVDATCESLEPVVVDLTHNDSVVIVEERRRPRRNGRRLRQDHADSCVVSSDDEELSKDKDVYVTTHTPRSTKDEGTTGLRPSGTVSCPICMDGYSEIVQNGRLIVSTECGHVFCSQCLRDSLKNANTCPTCRKKINHKRYHPIYI [L53A] | disrupting interaction |
| MSTRNPQRKRRGGAVNSRQTQKRTRETTSTPEISLEAEPIELVETVGDEIADLTCESLEPVVVDLTHNDSVVIVEERRRPRRNGRRLRQDHADSCVVSSDDEELSKDKDVYVTTHTPRSTKDEGTTGLRPSGTVSCPICMDGYSEIVQNGRLIVSTECGHVFCSQCLRDSLKNANTCPTCRKKINHKRYHPIYI [V51A] | disrupting interaction |
| MSTRNPQRKRRGGAVNSRQTQKRTRETTSTPEISLEAEPAELVETVGDEIVDLTCESLEPVVVDLTHNDSVVIVEERRRPRRNGRRLRQDHADSCVVSSDDEELSKDKDVYVTTHTPRSTKDEGTTGLRPSGTVSCPICMDGYSEIVQNGRLIVSTECGHVFCSQCLRDSLKNANTCPTCRKKINHKRYHPIYI [I40A] | disrupting interaction |
| MSTRNPQRKRRGGAVNSRQTQKRTRETTSTPEISLEAEPIELVETVGDEIVDLTCESLEPAVVDLTHNDSVVIVEERRRPRRNGRRLRQDHADSCVVSSDDEELSKDKDVYVTTHTPRSTKDEGTTGLRPSGTVSCPICMDGYSEIVQNGRLIVSTECGHVFCSQCLRDSLKNANTCPTCRKKINHKRYHPIYI [V61A] | disrupting interaction |

Second part, the variant after the results:

| effect of a mutation on the interaction | Variant |
| --- | --- |
| disrupting interaction | MSTRNPQRKRRGGAVNSRQTQKRTRETTSTPEISLEAEPIELVETVGDEIVDLTCESLEPVVADLTHNDSVVIVEERRRPRRNGRRLRQDHADSCVVSSDDEELSKDKDVYVTTHTPRSTKDEGTTGLRPSGTVSCPICMDGYSEIVQNGRLIVSTECGHVFCSQCLRDSLKNANTCPTCRKKINHKRYHPIYI [V63A] |
| disrupting interaction | MSTRNPQRKRRGGAVNSRQTQKRTRETTSTPEISLEAEPIELVETVGDEIVDLTCESLEPVVVDLTHNDSAVIVEERRRPRRNGRRLRQDHADSCVVSSDDEELSKDKDVYVTTHTPRSTKDEGTTGLRPSGTVSCPICMDGYSEIVQNGRLIVSTECGHVFCSQCLRDSLKNANTCPTCRKKINHKRYHPIYI [V71A] |
| disrupting interaction | MSTRNPQRKRRGGAVNSRQTQKRTRETTSTPEISLEAEPIELVETVGDEIVDLTCESLEPVVVDLTHNDSVVIAEERRRPRRNGRRLRQDHADSCVVSSDDEELSKDKDVYVTTHTPRSTKDEGTTGLRPSGTVSCPICMDGYSEIVQNGRLIVSTECGHVFCSQCLRDSLKNANTCPTCRKKINHKRYHPIYI [V74A] |
| disrupting interaction | MSTRNPQRKRRGGAVNSRQTQKRTRETTSTPEISLEAEPIELVETVGDEIVDLTCESLEPVVVDLTHNDSVVAVEERRRPRRNGRRLRQDHADSCVVSSDDEELSKDKDVYVTTHTPRSTKDEGTTGLRPSGTVSCPICMDGYSEIVQNGRLIVSTECGHVFCSQCLRDSLKNANTCPTCRKKINHKRYHPIYI [I73A] |
| disrupting interaction | MSTRNPQRKRRGGAVNSRQTQKRTRETTSTPEISLEAEPIELVETVGDEIVDLTCESLEPVAVDLTHNDSVVIVEERRRPRRNGRRLRQDHADSCVVSSDDEELSKDKDVYVTTHTPRSTKDEGTTGLRPSGTVSCPICMDGYSEIVQNGRLIVSTECGHVFCSQCLRDSLKNANTCPTCRKKINHKRYHPIYI [V62A] |
| disrupting interaction | MSTRNPQRKRRGGAVNSRQTQKRTRETTSTPEISLEAEPIELVETVGDEIVDLTCESLEPVVVDLTHNDSVAIVEERRRPRRNGRRLRQDHADSCVVSSDDEELSKDKDVYVTTHTPRSTKDEGTTGLRPSGTVSCPICMDGYSEIVQNGRLIVSTECGHVFCSQCLRDSLKNANTCPTCRKKINHKRYHPIYI [V72A] |
